Article doi:10.1101/2025.02.08.637281 (bioRxiv, 2025)

Legend:
[1] = target: T1, REPRESSOR OF GA1-3 (RGA), full-length, Arabidopsis thaliana DELLA protein (Arabidopsis thaliana, UniProt Q9SLH3 1-587); assay: SEC-MALS
T1 sequence (looked up): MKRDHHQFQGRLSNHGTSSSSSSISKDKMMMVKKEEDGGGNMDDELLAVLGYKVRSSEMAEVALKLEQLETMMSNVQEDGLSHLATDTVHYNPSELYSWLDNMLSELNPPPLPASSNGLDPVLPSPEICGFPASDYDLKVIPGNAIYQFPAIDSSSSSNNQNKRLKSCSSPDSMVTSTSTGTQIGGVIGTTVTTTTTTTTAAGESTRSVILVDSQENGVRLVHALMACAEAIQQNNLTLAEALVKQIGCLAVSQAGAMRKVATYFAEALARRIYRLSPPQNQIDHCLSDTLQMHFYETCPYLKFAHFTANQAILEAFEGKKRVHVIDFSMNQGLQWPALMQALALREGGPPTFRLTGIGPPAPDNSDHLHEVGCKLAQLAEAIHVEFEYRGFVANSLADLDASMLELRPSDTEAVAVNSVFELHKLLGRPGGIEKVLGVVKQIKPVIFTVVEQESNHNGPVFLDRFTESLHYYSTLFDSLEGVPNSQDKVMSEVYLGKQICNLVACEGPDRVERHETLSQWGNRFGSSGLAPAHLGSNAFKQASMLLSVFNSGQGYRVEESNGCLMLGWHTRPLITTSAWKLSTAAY

[2] = target: T2, ASK2, SKP1-like protein of Arabidopsis thaliana (Arabidopsis thaliana, UniProt Q9FHW7 1-171); assay: SEC
T2 sequence (looked up): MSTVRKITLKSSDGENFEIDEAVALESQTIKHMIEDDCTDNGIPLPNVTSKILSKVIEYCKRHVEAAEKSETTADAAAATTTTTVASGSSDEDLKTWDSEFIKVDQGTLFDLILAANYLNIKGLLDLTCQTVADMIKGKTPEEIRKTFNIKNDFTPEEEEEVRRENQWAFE

B1: GA … DWARF1A (GID1A), gibberellin receptor, GA3-bound (receptor, Arabidopsis thaliana, UniProt Q9MAA7 1-345, looked up)
chain: MAASDEVNLIESRTVVPLNTWVLISNFKVAYNILRRPDGTFNRHLAEYLDRKVTANANPVDGVFSFDVLIDRRINLLSRVYRPAYADQEQPPSILDLEKPVDGDIVPVILFFHGGSFAHSSANSAIYDTLCRRLVGLCKCVVVSVNYRRAPENPYPCAYDDGWIALNWVNSRSWLKSKKDSKVHIFLAGDSSGGNIAHNVALRAGESGIDVLGNILLNPMFGGNERTESEKSLDGKYFVTVRDRDWYWKAFLPEGEDREHPACNPFSPRGKSLEGVSFPKSLVVVAGLDLIRDWQLAYAEGLKKAGQEVKLMHLEKATVGFYLLPNNNHFHNVMDEISAFVNAEC
binding result [1]: binds

B2: SLEEPY 1 (SLY1), F-box protein (natural protein, Arabidopsis thaliana, UniProt Q9STX3 1-151, looked up)
chain: MKRSTTDSDLAGDAHNETNKKMKSTEEEEIGFSNLDENLVYEVLKHVDAKTLAMSSCVSKIWHKTAQDERLWELICTRHWTNIGCGQNQLRSVVLALGGFRRLHSLYLWPLSKPNPRARFGKDELKLTLSLLSIRYYEKMSFTKRPLPESK
binding result [2]: binds
